# Results as given in IntAct's records for PubMed 25910212.
# B1: Emerin (Homo sapiens), P50402 (parent)
# chain: MDNYADLSDTELTTLLRRYNIPHGPVVGSTRRLYEKKIFEYETQRRRLSPPSSSAASSYSFSDLNSTRGDADMYDLPKKEDALLYQSKGYNDDYYEESYFTTRTYGEPESAGPSRAVRQSVTSFPDADAFHHQVHDDDLLSSSEEECKDRERPMYGRDSAYQSITHYRPVSASRSSLDLSYYPTSSSTSFMSSSSSSSSWLTRRAIRPENRAPGAGLGQDRQVPLWGQLLLFLVFVIVLFFIYHFMQAEEGNPF
# partner: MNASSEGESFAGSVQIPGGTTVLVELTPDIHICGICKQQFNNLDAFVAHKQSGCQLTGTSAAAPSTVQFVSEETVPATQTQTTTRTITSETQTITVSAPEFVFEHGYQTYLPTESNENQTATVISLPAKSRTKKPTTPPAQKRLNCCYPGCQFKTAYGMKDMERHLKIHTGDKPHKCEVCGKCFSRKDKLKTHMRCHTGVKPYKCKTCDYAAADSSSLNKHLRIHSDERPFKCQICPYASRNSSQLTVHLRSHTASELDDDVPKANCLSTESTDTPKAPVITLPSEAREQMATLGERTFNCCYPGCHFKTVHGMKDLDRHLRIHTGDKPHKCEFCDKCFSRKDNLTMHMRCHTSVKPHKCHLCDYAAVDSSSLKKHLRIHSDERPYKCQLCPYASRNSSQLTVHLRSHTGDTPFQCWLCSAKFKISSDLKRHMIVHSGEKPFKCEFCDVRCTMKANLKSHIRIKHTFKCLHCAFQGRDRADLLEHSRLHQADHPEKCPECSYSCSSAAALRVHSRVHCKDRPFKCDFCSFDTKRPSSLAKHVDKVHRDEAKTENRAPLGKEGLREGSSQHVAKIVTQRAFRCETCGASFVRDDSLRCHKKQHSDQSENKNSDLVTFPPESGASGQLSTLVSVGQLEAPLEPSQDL
# B2: Ribose-phosphate pyrophosphokinase 1 (Homo sapiens), P60891 (parent)
# chain: MPNIKIFSGSSHQDLSQKIADRLGLELGKVVTKKFSNQETCVEIGESVRGEDVYIVQSGCGEINDNLMELLIMINACKIASASRVTAVIPCFPYARQDKKDKSRAPISAKLVANMLSVAGADHIITMDLHASQIQGFFDIPVDNLYAEPAVLKWIRENISEWRNCTIVSPDAGGAKRVTSIADRLNVDFALIHKERKKANEVDRMVLVGDVKDRVAILVDDMADTCGTICHAADKLLSAGATRVYAILTHGIFSGPAISRINNACFEAVVVTNTIPQEDKMKHCSKIQVIDISMILAEAIRRTHNGESVSYLFSHVPL
# partner: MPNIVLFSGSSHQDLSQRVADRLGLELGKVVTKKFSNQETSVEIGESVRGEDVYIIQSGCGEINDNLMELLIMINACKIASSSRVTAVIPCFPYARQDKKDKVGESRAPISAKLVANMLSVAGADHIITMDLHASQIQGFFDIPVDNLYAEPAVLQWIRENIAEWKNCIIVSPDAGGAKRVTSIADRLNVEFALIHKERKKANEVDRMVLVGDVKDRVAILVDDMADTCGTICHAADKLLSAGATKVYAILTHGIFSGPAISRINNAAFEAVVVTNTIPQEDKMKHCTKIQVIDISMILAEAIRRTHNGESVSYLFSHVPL
# B3: Acetylcholine receptor subunit gamma (Homo sapiens), P07510-2 (parent)
# chain: MHGGQGPLLLLLLLAVCLGAQGRNQEERLLADLMQNYDPNLRPAERDSDVVNVSLKLTLTNLISLNEREEALTTNVWIEMQWCDYRLRWDPRDYEGLWVLRVPSTMVWRPDIVLENKSQTYSTNEIDLQLSQEDGQTIEWIFIDPEAFTENGEWAIQHRPAKMLLDPAAPAQEAGHQKVVFYLLIQRKPLFYVINIIAPCVLISSVAILIHFLPAKAGGQKCTVAINVLLAQTVFLFLVAKKVPETSQAVPLISKYLTFLLVVTILIVVNAVVVLNVSLRSPHTHSMARGVRKVFLRLLPQLLRMHVRPLAPAAVQDTQSRLQNGSSGWSITTGEEVALCLPRSELLFQQWQRQGLVAAALEKLEKGPELGLSQFCGSLKQAAPAIQACVEACNLIACARHQQSHFDNGNEEWFLVGRVLDRVCFLAMLSLFICGTAGIFLMAHYNRVPALPFPGDPRPYLPSPD
# partner: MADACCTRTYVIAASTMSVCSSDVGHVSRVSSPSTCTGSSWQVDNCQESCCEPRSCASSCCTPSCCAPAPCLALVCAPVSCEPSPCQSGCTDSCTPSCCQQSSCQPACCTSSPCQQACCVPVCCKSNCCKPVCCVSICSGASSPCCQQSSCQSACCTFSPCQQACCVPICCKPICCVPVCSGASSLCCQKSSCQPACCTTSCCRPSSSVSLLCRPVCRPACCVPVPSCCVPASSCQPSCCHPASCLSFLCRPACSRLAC
# Variants of: B1
# Conditions: with zf64b_human ZFP64, Q9NTW7
row,effect of a mutation on the interaction,Variant
1,with no effect,MDNYADLSDTELTTLLRRYNIPHGPVVGSTRRLYEKKIFEYETQRRRLSPPSSFAASSYSFSDLNSTRGDADMYDLPKKEDALLYQSKGYNDDYYEESYFTTRTYGEPESAGPSRAVRQSVTSFPDADAFHHQVHDDDLLSSSEEECKDRERPMYGRDSAYQSITHYRPVSASRSSLDLSYYPTSSSTSFMSSSSSSSSWLTRRAIRPENRAPGAGLGQDRQVPLWGQLLLFLVFVIVLFFIYHFMQAEEGNPF [S54F]
2,with no effect,MDNYADLSDTELTTLLRRYNIPHGPVVGSTRRLYEKKIFEYETQRRRLSPPSSSAASSYSFSDLNSTRGDADMYDLPKKEDALLYQSKGYNDDYYEESYFTTRTYGEPESAGPSRAVRQSVTSFPDADAFHHQVHDDDLLSSSEEECKDRERPMYGRDSAYQSITHYRPVSASRSSLDLSYYHTSSSTSFMSSSSSSSSWLTRRAIRPENRAPGAGLGQDRQVPLWGQLLLFLVFVIVLFFIYHFMQAEEGNPF [P183H]

# Further lines, the variant ahead of its results:
row,Variant,effect of a mutation on the interaction
1,MDNYADLSDTELTTLLRRYNIPHGPVVGSTRRLYEKKIFEYETQRRRLSPPSSSAASSYSFSDLNSTRGDAVMYDLPKKEDALLYQSKGYNDDYYEESYFTTRTYGEPESAGPSRAVRQSVTSFPDADAFHHQVHDDDLLSSSEEECKDRERPMYGRDSAYQSITHYRPVSASRSSLDLSYYPTSSSTSFMSSSSSSSSWLTRRAIRPENRAPGAGLGQDRQVPLWGQLLLFLVFVIVLFFIYHFMQAEEGNPF [D72V],with no effect
2,MDNYADLSDTELTTLLRRYNIPHGPVVGSTRRLYEKKIFEYETQRRRLSPPSSSAASSYSFSDLNSTRGDADMYDLPKKEDALLYQSKGYNDDYYEESYFTTRTYGEPESAGPSRAVRQSVTSFPDADAFHHQVHDDDLLSSSEEECKDRERPMYGRDSAYQSITHYRPVSASRSSLDLSYYTTSSSTSFMSSSSSSSSWLTRRAIRPENRAPGAGLGQDRQVPLWGQLLLFLVFVIVLFFIYHFMQAEEGNPF [P183T],with no effect

# Variants of: B2
# Conditions: with PRPS2, P11908-2
row,effect of a mutation on the interaction,Variant
1,with no effect,MPNIKIFSGSSHQDLSQKIADRLGLELGKVVTKKFSNQETCVEIGESVRGEDVYIVQSGCGEINDNLMELLIMINACKIASASRVTAVIPCFPYARQDKKDKSRAPISAKLVANMLSVAGADHIITMDLHASQIQGFFDIPVDNLYAEPAVLKWIRENISEWRNCTIVSPDAGGAKRVTSIAHRLNVDFALIHKERKKANEVDRMVLVGDVKDRVAILVDDMADTCGTICHAADKLLSAGATRVYAILTHGIFSGPAISRINNACFEAVVVTNTIPQEDKMKHCSKIQVIDISMILAEAIRRTHNGESVSYLFSHVPL [D183H]
2,with no effect,MPNIKIFSGSSHQDLSQKIADRLGLELGKVVTKKFSNQETCVEIGESVRGEHVYIVQSGCGEINDNLMELLIMINACKIASASRVTAVIPCFPYARQDKKDKSRAPISAKLVANMLSVAGADHIITMDLHASQIQGFFDIPVDNLYAEPAVLKWIRENISEWRNCTIVSPDAGGAKRVTSIADRLNVDFALIHKERKKANEVDRMVLVGDVKDRVAILVDDMADTCGTICHAADKLLSAGATRVYAILTHGIFSGPAISRINNACFEAVVVTNTIPQEDKMKHCSKIQVIDISMILAEAIRRTHNGESVSYLFSHVPL [D52H]
3,with no effect,MPNIKIFSGSSHQDLSQKIADRLGLELGKVVTKKFSNQETCVEIGESVRGEDVYIVQSGCGEINDNLMELLIMINACKIASASRVTAVIPCFPYARQDKKDKSRAPISAKLVASMLSVAGADHIITMDLHASQIQGFFDIPVDNLYAEPAVLKWIRENISEWRNCTIVSPDAGGAKRVTSIADRLNVDFALIHKERKKANEVDRMVLVGDVKDRVAILVDDMADTCGTICHAADKLLSAGATRVYAILTHGIFSGPAISRINNACFEAVVVTNTIPQEDKMKHCSKIQVIDISMILAEAIRRTHNGESVSYLFSHVPL [N114S]

# Variants of: B3
# Conditions: with kr108_human KRTAP10-8, P60410
row,effect of a mutation on the interaction,Variant
1,disrupting interaction strength,MHGGQGPLLLLLLLAVCLGAQGRNQEERLLADLMQNYDPNLRPAERDSDVVNVSLKLTLTNLISLNEREEALTTNVWIEMQWCDYCLRWDPRDYEGLWVLRVPSTMVWRPDIVLENKSQTYSTNEIDLQLSQEDGQTIEWIFIDPEAFTENGEWAIQHRPAKMLLDPAAPAQEAGHQKVVFYLLIQRKPLFYVINIIAPCVLISSVAILIHFLPAKAGGQKCTVAINVLLAQTVFLFLVAKKVPETSQAVPLISKYLTFLLVVTILIVVNAVVVLNVSLRSPHTHSMARGVRKVFLRLLPQLLRMHVRPLAPAAVQDTQSRLQNGSSGWSITTGEEVALCLPRSELLFQQWQRQGLVAAALEKLEKGPELGLSQFCGSLKQAAPAIQACVEACNLIACARHQQSHFDNGNEEWFLVGRVLDRVCFLAMLSLFICGTAGIFLMAHYNRVPALPFPGDPRPYLPSPD [R86C]
2,disrupting interaction strength,MHGGQGPLLLLLLLAVCLGAQGRNQEERLLADLMQNYDPNLRPAERDSDVVNVSLKLTLTNLISLNEREEALTTNVWIEMQWCDYRLRWDPRDYEGLWVLRVPSTMVWRPDIVLENKSQTYSTNEIDLQLSQEDGQTIEWIFIDPEAFTENGEWAIQHRPAKMLLDPAAPAQEAGHQKVVFYLLIQCKPLFYVINIIAPCVLISSVAILIHFLPAKAGGQKCTVAINVLLAQTVFLFLVAKKVPETSQAVPLISKYLTFLLVVTILIVVNAVVVLNVSLRSPHTHSMARGVRKVFLRLLPQLLRMHVRPLAPAAVQDTQSRLQNGSSGWSITTGEEVALCLPRSELLFQQWQRQGLVAAALEKLEKGPELGLSQFCGSLKQAAPAIQACVEACNLIACARHQQSHFDNGNEEWFLVGRVLDRVCFLAMLSLFICGTAGIFLMAHYNRVPALPFPGDPRPYLPSPD [R187C]
